Measurements from patent US20200157174A1 (DRAGONFLY THERAPEUTICS, published 2020).
Residue numbers refer to the chain shown, from its start.

What was measured:
Assay in all cases: ELISA on coated NKG2D-Fc;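 also: titrated NKG2D-binding domains on plate-bound human, mouse or cynomolgus NKG2D ectodomain–human IgG1 Fc fusions, detected with HRP anti-human kappa secondary and TMB, absorbance at 450 nm corrected at 540 nm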
[1] = target: T1, recombinant human NKG2D-Fc (human, UniProt P26718 73-216)
T1 construct: extracellular domain; also called human NKG2D-Fc fusion protein; NKG2D-Fc-biotin; not shown: human IgG1 Fc domain
T1 sequence (looked up): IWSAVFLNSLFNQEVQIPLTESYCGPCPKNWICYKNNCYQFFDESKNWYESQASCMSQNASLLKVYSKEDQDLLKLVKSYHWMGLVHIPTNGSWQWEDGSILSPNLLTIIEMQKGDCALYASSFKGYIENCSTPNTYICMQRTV

[2] = target: T2, recombinant cynomolgus NKG2D-Fc (cynomolgus; human, UniProt P61252 73-216)
T2 construct: extracellular domain; also called cynomolgus NKG2D-Fc fusion protein; not shown: human IgG1 Fc domain
T2 sequence (looked up): T1 sequence (looked up) with D43N, T133I

[3] = target: T3, recombinant mouse NKG2D-Fc (mouse; human, UniProt O54709 90-232)
T3 construct: extracellular domain; also called mouse NKG2D-Fc fusion protein; Mouse NKG2D-Fc-biotin; not shown: human IgG1 Fc domain
T3 sequence (looked up): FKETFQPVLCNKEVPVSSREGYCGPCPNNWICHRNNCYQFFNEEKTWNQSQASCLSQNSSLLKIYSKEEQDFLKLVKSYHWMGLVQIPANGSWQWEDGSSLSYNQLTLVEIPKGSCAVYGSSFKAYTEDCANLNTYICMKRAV

Measured: binding result

B1: ADI-27727 (antibody, V domains shown)
VH: QVQLVQSGAEVKKPGSSVKVSCKASGGTFSSYAISWVRQAPGQGLEWMGGIIPIFGTANYAQKFQGRVTITADESTSTAYMELSSLRSEDTAVYYCARGDSSIRHAYYYYGMDVWGQGTTVTVSS
VL: not shown
binds: all assays above

B2: ADI-29378 (antibody, V domains shown)
VH: QVQLVQSGAEVKKPGASVKVSCKASGYTFTSYYMHWVRQAPGQGLEWMGIINPSGGSTSYAQKFQGRVTMTRDTSTSTVYMELSSLRSEDTAVYYCAREGAGFAYGMDYYYMDVWGKGTTVTVSS
VL: EIVLTQSPATLSLSPGERATLSCRASQSVSSYLAWYQQKPGQAPRLLIYDASNRATGIPARFSGSGSGTDFTLTISSLEPEDFAVYYCQQSDNWPFTFGGGTKVEIK
notes: also called E78
binds: all assays above

B3: ADI-27749 (antibody, V domains shown)
VH: EVQLVESGGGLVKPGGSLRLSCAASGFTFSSYSMNWVRQAPGKGLEWVSSISSSSSYIYYADSVKGRFTISRDNAKNSLYLQMNSLRAEDTAVYYCARGAPMGAAAGWFDPWGQGTLVTVSS
VL: DIQMTQSPSSVSASVGDRVTITCRASQGISSWLAWYQQKPGKAPKLLIYAASSLQSGVPSRFSGSGSGTDFTLTISSLQPEDFATYYCQQGVSFPRTFGGGTKVEIK
notes: also called A49
binds: all assays above
